# Data reported in the supplement of paper PMC10567573.
# B1: SERPINB5 (parent)
# chain: FPESETKECPFRVNKVCGAACSSK
# B2: TRIM43 (parent)
# chain: YQEIFQQLQRSWVKMDQKSKHLKE
# Variants of: B1
# Experiment: protein stability index of a GFP-peptide fusion (GPS, HEK-293T) (PSI 1-6); higher = more stable
# Details: c terminus: a fixed tail appended
# 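Note: lentivirally expressed fusions sorted by FACS into six bins by GFP to DsRed ratio, PSI derived from sequencing read proportions per bin multiplied by bin number.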
row,Variant,protein stability index
1,FPESETKECPFRVNKVPGAACSSK [C17P],2.29
2,FPESETKECPFRVNKVQGAACSSK [C17Q],2.4
3,FPESETKECPFRVNKVHGAACSSK [C17H],2.45
4,FPESETKECPFRVNKVGGAACSSK [C17G],2.91
5,FPESETKECPFRVNKVCGAACSSG [K24G],2.57
6,FPESETKECPFRVNKVCGAACSSF [K24F],2.02
7,FPESETKECPFRVNKVCGAACSSQ [K24Q],2.45
8,FPESETKECPFRVNKVCGAACSSD [K24D],2.94
9,FPESETKECPFRVNKVCGAACSSE [K24E],2.96
10,FPESETKECPFRVNKVCGAACSSR [K24R],2.05
11,FPESETKECPFRVNKVCGAACSSP [K24P],2.21
12,FPESETKECPFRVNKVCGAACSSS [K24S],2.25
13,FPESETKECPFRVNKVCGAACSSY [K24Y],2.25
14,FPESETKECPFRVNKVCGAACSSV [K24V],2.17
15,FPESETKECPFRVNKVCGAACSSL [K24L],2.13
16,FPESETKECPFRVNKVCGAACSST [K24T],2.48
17,FPESETKECPFRVNKVCGAACSSH [K24H],2.81
18,FPESETKECPFRVNKVCGAACSSA [K24A],2.42
19,FPESETKECPFRVNKVCGAACSSM [K24M],2
20,FPESETKECPFRVNKVCGAACSSW [K24W],1.46
21,FPESETKECPFRVNKVCGAACSSC [K24C],3.31
22,FPESETKECPFRVNKVCGAACSSI [K24I],1.88
23,FPESETKECPFRVNKVCGAACSSN [K24N],1.89
24,FPESETKECPFRVNKVCGATCSSK [A20T],3.22
25,FPESETKECPFRVNKVCGAPCSSK [A20P],2.49
26,FPESETKECPFRVNKVCGAHCSSK [A20H],2.58
27,FPESETKECPFRVNKVCGAECSSK [A20E],2.84

row,Variant,protein stability index
1,FPESETKECPFRVNKVCGAFCSSK [A20F],1.95
2,FPESETKECPFRVNKVCGAKCSSK [A20K],2.26
3,FPESETKECPFRVNKVCGAVCSSK [A20V],2.67
4,FPESETKECPFRVNKVCGASCSSK [A20S],2.29
5,FPESETKECPFRVNKVCGAQCSSK [A20Q],2.09
6,FPESETKECPFRVNKVCGAWCSSK [A20W],1.94
7,FPESETKECPFRVNKVCGAGCSSK [A20G],3.22
8,FPESETKECPFRVNKVCGALCSSK [A20L],2.79
9,FPESETKECPFRVNKVCGADCSSK [A20D],2.69
10,FPESETKECPFRVNKVCGACCSSK [A20C],2.17
11,FPESETKECPFRVNKVCGAICSSK [A20I],2.32
12,FPESETKECPFRVNKVCGARCSSK [A20R],2.53
13,FPESETKECPFRVNKVCGAYCSSK [A20Y],2.27
14,FPESETKECPFRVNKVCGAMCSSK [A20M],2.01
15,FPESETKECPFRVNKVCGANCSSK [A20N],3.18
16,FPESETKECPFRVNKVCGAAPSSK [C21P],2.23
17,FPESETKECPFRVNKVCGAAISSK [C21I],2.04
18,FPESETKECPFRVNKVCGAAVSSK [C21V],2.56
19,FPESETKECPFRVNKVCGAASSSK [C21S],2.9
20,FPESETKECPFRVNKVCGAATSSK [C21T],2.62
21,FPESETKECPFRVNKVCGAALSSK [C21L],2.2
22,FPESETKECPFRVNKVCGAAGSSK [C21G],2.69
23,FPESETKECPFRVNKVCGAAQSSK [C21Q],2.22
24,FPESETKECPFRVNKVCGAAKSSK [C21K],3.19
25,FPESETKECPFRVNKVCGAAYSSK [C21Y],2.51
26,FPESETKECPFRVNKVCGAADSSK [C21D],2.81
27,FPESETKECPFRVNKVCGAARSSK [C21R],2.56

row,Variant,protein stability index
1,FPESETKECPFRVNKVCGAAASSK [C21A],2.76
2,FPESETKECPFRVNKVCGAAMSSK [C21M],2.35
3,FPESETKECPFRVNKVCGAAHSSK [C21H],2.44
4,FPESETKECPFRVNKVCGAAFSSK [C21F],1.94
5,FPESETKECPFRVNKVCGAANSSK [C21N],2.44
6,FPESETKECPFRVNKVCGAAWSSK [C21W],1.38
7,FPESETKECPFRVNKVCGAAESSK [C21E],3.19
8,FPESETKECPFRVNKQCGAACSSK [V16Q],2.67
9,FPESETKECPFRVNKKCGAACSSK [V16K],2.61
10,FPESETKECPFRVNKNCGAACSSK [V16N],2.82
11,FPESETKECPFRVNKFCGAACSSK [V16F],2.57
12,FPESETKECPFRVNKCCGAACSSK [V16C],2.24
13,FPESETKECPFRVNKACGAACSSK [V16A],3.03
14,FPESETKECPFRVNKECGAACSSK [V16E],3.12
15,FPESETKECPFRVNKYCGAACSSK [V16Y],2.14
16,FPESETKECPFRVNKSCGAACSSK [V16S],2.28
17,FPESETKECPFRVNKPCGAACSSK [V16P],2.11
18,FPESETKECPFRVNKWCGAACSSK [V16W],2.49
19,FPESETKECPFRVNKGCGAACSSK [V16G],2.9
20,FPESETKECPFRVNKTCGAACSSK [V16T],2.71
21,FPESETKECPFRVNKICGAACSSK [V16I],2.04
22,FPESETKECPFRVNKRCGAACSSK [V16R],2.8
23,FPESETKECPFRVNKLCGAACSSK [V16L],1.86
24,FPESETKECPFRVNKDCGAACSSK [V16D],2.89
25,FPESETKECPFRVNKMCGAACSSK [V16M],2.18
26,FPESETKECPFRVNKHCGAACSSK [V16H],2.17

# Variants of: B2
# Experiment: as above
# Details: c terminus: a fixed tail appended
row,Variant,protein stability index
1,FQEIFQQLQRSWVKMDQKSKHLKE [Y1F],1.58
2,PQEIFQQLQRSWVKMDQKSKHLKE [Y1P],3.04
3,LQEIFQQLQRSWVKMDQKSKHLKE [Y1L],1.5
4,GQEIFQQLQRSWVKMDQKSKHLKE [Y1G],3.82
5,AQEIFQQLQRSWVKMDQKSKHLKE [Y1A],1.86
6,QQEIFQQLQRSWVKMDQKSKHLKE [Y1Q],3.35
7,NQEIFQQLQRSWVKMDQKSKHLKE [Y1N],3.73
8,MQEIFQQLQRSWVKMDQKSKHLKE [Y1M],1.99
9,HQEIFQQLQRSWVKMDQKSKHLKE [Y1H],3.7
10,EQEIFQQLQRSWVKMDQKSKHLKE [Y1E],4.08
11,CQEIFQQLQRSWVKMDQKSKHLKE [Y1C],1.56
12,IQEIFQQLQRSWVKMDQKSKHLKE [Y1I],2.04
13,DQEIFQQLQRSWVKMDQKSKHLKE [Y1D],4.53
14,KQEIFQQLQRSWVKMDQKSKHLKE [Y1K],3.46
